Experimental data from patent US20120316071A1 (published 2012).

Legend:
[1] = biological target: T1, rHuman ErbB2/Fc Chimera, CF (R&D Systems Cat#1129-ER) (human, UniProt P04626 23-652); test: ECL multispot (MSD), antigen spotted, Fab in solution; blank spot 407
T1 construct: Bought reagent

[2] = biological target: T2, rHuman Erythropoietin R/Fc Chimera, CF (R&D Systems Cat#963-ER) (human, UniProt P19235 25-250); test: as above
T2 construct: Bought reagent; also called EPO R; Epo R/Fc
T2 sequence (looked up): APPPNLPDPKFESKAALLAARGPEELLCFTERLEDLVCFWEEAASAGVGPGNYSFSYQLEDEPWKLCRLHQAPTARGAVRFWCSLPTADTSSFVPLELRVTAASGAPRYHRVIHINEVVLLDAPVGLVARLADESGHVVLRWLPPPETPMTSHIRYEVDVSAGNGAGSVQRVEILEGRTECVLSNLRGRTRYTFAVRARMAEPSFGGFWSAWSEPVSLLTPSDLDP

[3] = biological target: T3, rHuman IGF-1 sR (insulin-like growth factor-1 soluble receptor), CF (R&D Systems Cat#391-GR) (human, UniProt P08069 31-932); test: as above
T3 construct: Bought soluble receptor

[4] = biological target: T4, rHuman CD44/Fc Chimera, CF (R&D Systems Cat#3660-CD) (human, UniProt P16070 21-220); test: as above
T4 construct: Bought reagent

[5] = biological target: T5, rHuman Notch-1/Fc Chimera, CF (R&D Systems Cat#3647-TK) (human, UniProt P46531 19-526); test: as above
T5 construct: Bought reagent

[6] = biological target: T6, rHuman P-Cadherin/Fc Chimera, CF (R&D Systems Cat#861-PC) (human, UniProt P22223 108-654); test: as above
T6 construct: Bought reagent

[7] = biological target: T7, rHuman HGF R/c-MET/Fc Chimera, CF (R&D Systems Cat#358-MT/CF) (human, UniProt P08581 25-932); test: as above
T7 construct: Bought reagent; also called HGF R/Fc

[8] = biological target: T8, rHuman EGF R/Fc Chimera, CF (R&D Systems Cat#344-ER) (human, UniProt P00533 25-645); test: as above
T8 construct: Bought reagent

[9] = biological target: T9, Recombinant Human DLL4 (R&D Systems Cat#1506-D4/CF) (human, UniProt Q9NR61 27-524); test: as above
T9 construct: Bought recombinant protein; also called delta-like protein 4; rHuman DLL4

[10] = biological target: T1, rHuman ErbB2/Fc Chimera, CF (R&D …); test: ECL multispot (MSD), antigen spotted, Fab in solution; blank spot 416
[11] = biological target: T2, rHuman Erythropoietin R/Fc Chimera, CF …; test: as above
[12] = biological target: T3, rHuman IGF-1 sR (insulin-like growth …); test: as above
[13] = biological target: T4, rHuman CD44/Fc Chimera, CF (R&D Systems …); test: as above
[14] = biological target: T5, rHuman Notch-1/Fc Chimera, CF (R&D …); test: as above
[15] = biological target: T6, rHuman P-Cadherin/Fc Chimera, CF (R&D …); test: as above
[16] = biological target: T7, rHuman HGF R/c-MET/Fc Chimera, CF (R&D …); test: as above
[17] = biological target: T8, rHuman EGF R/Fc Chimera, CF (R&D …); test: as above
[18] = biological target: T9, Recombinant Human DLL4 (R&D Systems …); test: as above
[19] = biological target: T1, rHuman ErbB2/Fc Chimera, CF (R&D …); test: ECL multispot (MSD), antigen spotted, Fab in solution; blank spot 306
[20] = biological target: T3, rHuman IGF-1 sR (insulin-like growth …); test: as above
[21] = biological target: T6, rHuman P-Cadherin/Fc Chimera, CF (R&D …); test: as above
[22] = biological target: T7, rHuman HGF R/c-MET/Fc Chimera, CF (R&D …); test: as above
[23] = biological target: T8, rHuman EGF R/Fc Chimera, CF (R&D …); test: as above
[24] = biological target: T9, Recombinant Human DLL4 (R&D Systems …); test: as above
[25] = biological target: T1, rHuman ErbB2/Fc Chimera, CF (R&D …); test: ECL multispot (MSD), antigen spotted, Fab in solution; blank spot 262
[26] = biological target: T2, rHuman Erythropoietin R/Fc Chimera, CF …; test: as above
[27] = biological target: T3, rHuman IGF-1 sR (insulin-like growth …); test: as above
[28] = biological target: T4, rHuman CD44/Fc Chimera, CF (R&D Systems …); test: as above
[29] = biological target: T5, rHuman Notch-1/Fc Chimera, CF (R&D …); test: as above
[30] = biological target: T6, rHuman P-Cadherin/Fc Chimera, CF (R&D …); test: as above
[31] = biological target: T7, rHuman HGF R/c-MET/Fc Chimera, CF (R&D …); test: as above
[32] = biological target: T8, rHuman EGF R/Fc Chimera, CF (R&D …); test: as above
[33] = biological target: T9, Recombinant Human DLL4 (R&D Systems …); test: as above

T7 sequence (P08581 25-932, change not shown): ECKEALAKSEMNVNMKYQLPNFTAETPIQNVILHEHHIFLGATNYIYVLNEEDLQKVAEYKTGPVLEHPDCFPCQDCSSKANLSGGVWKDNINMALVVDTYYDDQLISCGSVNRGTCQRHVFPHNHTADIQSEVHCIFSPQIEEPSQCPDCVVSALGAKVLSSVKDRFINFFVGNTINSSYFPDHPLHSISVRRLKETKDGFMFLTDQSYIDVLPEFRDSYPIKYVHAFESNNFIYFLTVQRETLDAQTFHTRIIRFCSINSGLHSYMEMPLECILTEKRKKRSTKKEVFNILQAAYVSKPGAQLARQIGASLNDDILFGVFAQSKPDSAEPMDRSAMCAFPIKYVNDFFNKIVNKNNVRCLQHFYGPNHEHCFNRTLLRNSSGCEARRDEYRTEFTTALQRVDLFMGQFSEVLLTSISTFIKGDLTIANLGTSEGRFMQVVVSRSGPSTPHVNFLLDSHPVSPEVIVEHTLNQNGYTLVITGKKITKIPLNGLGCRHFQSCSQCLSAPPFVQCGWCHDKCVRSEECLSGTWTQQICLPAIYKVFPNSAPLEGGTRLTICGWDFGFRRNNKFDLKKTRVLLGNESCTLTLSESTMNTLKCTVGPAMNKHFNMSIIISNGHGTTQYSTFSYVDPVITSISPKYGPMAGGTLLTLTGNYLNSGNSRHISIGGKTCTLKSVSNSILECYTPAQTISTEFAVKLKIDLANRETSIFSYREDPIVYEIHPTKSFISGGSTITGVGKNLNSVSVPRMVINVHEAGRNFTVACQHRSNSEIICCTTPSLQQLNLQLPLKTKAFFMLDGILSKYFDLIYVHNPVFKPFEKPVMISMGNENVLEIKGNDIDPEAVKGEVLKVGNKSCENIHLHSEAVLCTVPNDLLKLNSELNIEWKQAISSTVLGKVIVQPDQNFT

B1: Fab VH1-46_IGHD6-6*01_IGHJ1*01 S102A/S103P/S104F/H111F (APFF) & L6_IGKJ1*01 S30T (Fab, V domains shown)
VH: QVQLVQSGAEVKKPGASVKVSCKASGYTFTSYYMHWVRQAPGQGLEWMGIINPSGGSTSYAQKFQGRVTMTRDTSTSTVYMELSSLRSEDTAVYYCAREEYAPFSAEYFQFWGQGTLVTVSS
VL: EIVLTQSPATLSLSPGERATLSCRASQSVTSYLAWYQQKPGQAPRLLIYDASNRATGIPARFSGSGSGTDFTLTISSLEPEDFAVYYCQQRSNWPPWTFGQGTKVEIKR
notes: Tested as Fab made in E. coli: VH joined to CH1 from Plasmid A (His6 and Flag tags), VL joined to kappa CL from Plasmid C; also called APFF / S30T
ECL signal [1]: 332 | ECL signal [2]: 497 | ECL signal [3]: 410 | ECL signal [4]: 423 | ECL signal [5]: 413 | ECL signal [6]: 370 | ECL signal [7]: 375 | ECL signal [8]: 360 | ECL signal [9]: 122000

B2: Fab VH1-46_IGHD6-6*01_IGHJ1*01 S102A/S103P/S104F/H111F (APFF) & L6_IGKJ1*01 S30R (Fab, V domains shown)
VH: QVQLVQSGAEVKKPGASVKVSCKASGYTFTSYYMHWVRQAPGQGLEWMGIINPSGGSTSYAQKFQGRVTMTRDTSTSTVYMELSSLRSEDTAVYYCAREEYAPFSAEYFQFWGQGTLVTVSS
VL: EIVLTQSPATLSLSPGERATLSCRASQSVRSYLAWYQQKPGQAPRLLIYDASNRATGIPARFSGSGSGTDFTLTISSLEPEDFAVYYCQQRSNWPPWTFGQGTKVEIKR
notes: Tested as Fab made in E. coli: VH joined to CH1 from Plasmid A (His6 and Flag tags), VL joined to kappa CL from Plasmid C; also called APFF / S30R
ECL signal [10]: 434 | ECL signal [11]: 571 | ECL signal [12]: 404 | ECL signal [13]: 455 | ECL signal [14]: 576 | ECL signal [15]: 465 | ECL signal [16]: 458 | ECL signal [17]: 456 | ECL signal [18]: 146000

B3: Fab VH1-46_IGHD6-6*01_IGHJ1*01 S102A/S103P/S104F/H111F (APFF) & L6_IGKJ1*01 (Fab, V domains shown)
VH: QVQLVQSGAEVKKPGASVKVSCKASGYTFTSYYMHWVRQAPGQGLEWMGIINPSGGSTSYAQKFQGRVTMTRDTSTSTVYMELSSLRSEDTAVYYCAREEYAPFSAEYFQFWGQGTLVTVSS
VL: not shown
notes: Tested as Fab made in E. coli: VH joined to CH1 from Plasmid A (His6 and Flag tags), VL joined to kappa CL from Plasmid C; Light chain unmutated (parent); also called APFF / parent; H:APFF & L:wt
ECL signal [19]: 412 | ECL signal [20]: 409 | ECL signal [21]: 466 | ECL signal [22]: 349 | ECL signal [23]: 386 | ECL signal [24]: 208000

B4: Fab VH1-46_IGHD6-6*01_IGHJ1*01 S102A/S103P/S104F/H111F (APFF) & L6_IGKJ1*01 S30P (Fab, V domains shown)
VH: QVQLVQSGAEVKKPGASVKVSCKASGYTFTSYYMHWVRQAPGQGLEWMGIINPSGGSTSYAQKFQGRVTMTRDTSTSTVYMELSSLRSEDTAVYYCAREEYAPFSAEYFQFWGQGTLVTVSS
VL: EIVLTQSPATLSLSPGERATLSCRASQSVPSYLAWYQQKPGQAPRLLIYDASNRATGIPARFSGSGSGTDFTLTISSLEPEDFAVYYCQQRSNWPPWTFGQGTKVEIKR
notes: Tested as Fab made in E. coli: VH joined to CH1 from Plasmid A (His6 and Flag tags), VL joined to kappa CL from Plasmid C; also called APFF / S30P
ECL signal [25]: 391 | ECL signal [26]: 520 | ECL signal [27]: 356 | ECL signal [28]: 334 | ECL signal [29]: 544 | ECL signal [30]: 348 | ECL signal [31]: 328 | ECL signal [32]: 394 | ECL signal [33]: 1140
